Reference: patent US5376632A, “Cyclodextrin based erythropoietin formulation” (priority 1992, dated 1994)

Columns and labels:
[1] = Irritation at the site of injection and clinical safety in healthy volunteers (Example 8); assay type: in vivo, human (healthy male volunteers); settings: s.c.
Procedure: Bioavailability of erythropoietin after subcutaneous administration of erythropoietin in a hydroxypropyl-β-cyclodextrin formulation in comparison with formulations using human serum albumin in healthy volunteers was assessed in the following study.
Six healthy male volunteers with ages ranging between 30 and 40 (median 32) years, body weights between 69 and 80 (median 75) kg were administered subcutaneously in the upper arm 1 ml of an EPO solution (4000 I.U./ml) according to a randomized cross-over design. A four-week interval occured between the two tests. The two formulations of EPO were
Irritation at the site of injection was scored before and 2, 4, and 24 hours after each administration. No oedema, erythema, itching or pain was reported in any of the volunteers at any time during the whole study. Both formulations are therefore equally well tolerated.

[2] = -80° C.; cited from earlier work

Substance: EPO: circulating glycoprotein hormone which induces an increase in red cell mass
- blood pressure or heart rate [1]: Nor did subcutaneous administration of EPO influence blood pressure or heart rate
- haematology and serum biochemistry [1]: No clinically important changes
- decrease in activity in aqueous solution [2]: substantial decrease in activity
